# Measured values reported in the DeepSol protein solubility set.
# Test: soluble on expression in E. coli; label from the status in PepcDB or PDB records
row,Sequence,soluble on expression in E. coli
1,MGSDKIHHHHHHMRIALDPYMYRHLSLGAMVDKTAELGYDYIELSPREDFMPFYKYPRVDRARIREFRKALSDAGVKLSSLLPLYHWAAPDEDLRIAAVRNWKRAIEVAVEMDCDLMNTEFSGQSDHALVCENQFMKSMDELMPHFEREGIKLDIQAHPYDFCERNNESVDIIRGLDRDWINYLYAAPHTFFYDDGVGDIASMLRYAGDRLTHLIIADTYNHRASSNLRYIVNPPGVTATVHQHLDIGQGEVNWEAFFSTLRDIKFDGIATVAVFAWEERADESSRFMLERVKSELLR,not soluble
2,MGSDKIHHHHHHMLDIKYYVLIDAIATHGTVHDAAAAIGITQPAATHRIREMERRLGVALFHREGRRLTLSASGERLLDTAHAVLPQLRNAELEAWQLARRAEPALRLGIGPYDTFSRAIPHLYDQHERDIDLVRLPMADMTTALLANRVDMICMIEVPSQRGIAHQLLFEEPLVAVLPPDHPDAQSDTIPAEVFDRGRHFTYSITPESGHEFEHFFQPAGVYPSHMVQIESVALILELVAAGKGVSILSRWAARDAHQAGHVVMRPLAGDIPRIPWYLAYTQTPHIAAVAEPLADTLRHLYRADE,not soluble
3,MSKYKTILQSNKDELHSLYEIANQDSWKPIYHIHPPFGLMNDPNGVSYYNDEYHVFYQWYPFGPIHGMKHWGHVRSKDLINWERMPVAIIPTESYESHGAYSGSAIVKDGLLHLLYTGNIKKPDDSRDAKQCMASMDSQYTMTKYSNNPVIDIIPDGYTKHVRDPKVWKHNDMYYMLLGAQRENKTGTLLLYKSQDLYNWHFQGEITTNLKEFGFMWECPDYFQLSGKDVLLFSPQGIEKDGENFHNVYNVVYAIGHFDIKNLYFHVDSYYEADKGFDFYAPQTLEDSTSRRLLFAWAGSSEITYPSDDYMWAHCLTLPRELTLEDNILKQKPVSELTKLRTTKKDISGDITAGLNVLSTLDDEDSYELIVTLKTEDAKRFGLSLFHNEEECFPITFNREQGTISIDRGNFYHQFGGEYGFERCKKIDIQDTIELQIFVDKSIVEIFLYDGSTVFTSRVFPRKDMKHHIAIFSDAKLNFTITQYKLKRGIVLEHHHHHH,soluble
4,MADTGEKDTETTASGTDGHSKEALAVISMLHECGIQEFDPRVVSMLMDVQYAVTSKILQMSSGLSRHAEKAQIEAEDVQTAADMLGVLTTNAPDREKILQLANDKNQQPLPQIRHNYGLKLPNDRFCQLQQNFVYKADDSYQPMEMQQVTHQPHIIEPPTQVLRPEHVQNMLKRRAPDDDFDS,not soluble
5,NVLYENQKQIANQFNKAISQIQESLTTTSTALGKLQDVVNQNAQALNTLVKQLSSNFGAISSVLNDILSRLDKVEAE,soluble
6,MGSDKIHHHHHHMFKPWVGDDWGHQDNALQGIRLLVMGESHYCDPAKPELVGRCEPDVTSYVVRRYAIEESHRFFTGITQVISGKPKWQMSRDDVAAIWHSIAFYNYVPLYVGTQSRIRPGDKFALGRVPFEILLEQLRPRAILVCGYELWWWVLKGMPCGFNGDPASVPFQKIGPAIAARMKHPSSAYSSVRWRPTLLELLSRARALQQE,not soluble
7,AGKPVLHYFNARGRMECIRWLLAAAGVEFEEKFIQSPEDLEKLKKDGNLMFDQVPMVEIDGMKLAQTRAILNYIATKYDLYGKDMKERALIDMYSEGILDLTEMIGQLVLCPPDQREAKTALAKDRTKNRYLPAFEKVLKSHGQDYLVGNRLTRVDIHLLEVLLYVEEFDASLLTPFPLLKAFKSRISSLPNVKKFLQPGSQRKPPMDAKQIQEARKAFKIQ,soluble
8,LFTPHWIVRYLVENSLGRLWMLNRPESSLVDRMEYYIKPEKQETDFLKINSPEEIKICDPACGSGHMLVYAFDLLYAIYEEEGYTPSEIPEMILTHNLFGIEIDKRAGELAGFALAMKARGKDRRFFNKQVHPNICMLENVAFEQGELNDYIETVGRELFTNAHRATLLQFAEADNFGSLIRPVAKDISDLLHLLESKNLSGNLSLLSTHQKVLKALKQADYLSPKYHVVVANPPYMGGKGMNNRLKTFAQDNYPDSKSDTFAMFIERNLDLAVKKGMVAMITMQSWMFLSSFEKLRENILSNDTILSMAHFGARAFDSIGGEVVSTTAFVLENAQHPDYKGSYLRLVDGN,not soluble
9,MGSDKIHHHHHHMEMNEVIIDENLKESIDLWTFMLPIISHRTTIRKNIHGYMPLHWHDELQFVVIIQGEARFQVNEEAIIVQEGDGLFINSGCLHMVEDGNGSNCVYICLNVPAQSIISRELYTAYVAPYVQATNLPYVLIPSSEMWGQNIIEATLNIHQCLEEQPPYYEMDITTKLTVIWKSLITNGFPLEYDQSAMIKNQRMKAMLQWIHLHYGENIRLDDIAKAGQLSRSECCRYFKRTLKMTPLQYVTDYRIQKSVTLLQQPESNVTDVAYQVGFNSTSYFIDQFRKAMNMTPLRYKKSKLERLID,not soluble
10,MSLFKEERTMTNYTVDTLNLGKFITESGEVIDNLRLRYEHVGYHGQPLVVVCHALTGNHLTYGTDDYPGWWREIIDGGYIPIHDYQFLTFDVIGSPFGSSSPLNDPHFPKKLTLRDIVRANERGIQALGYDKINILIGGSLGGMQAMELLYNQQFEVDKAIILAATSRTSSYSRAFNEIARQAIHLGGKEGLSIARQLGFLTYRSSKSYDERFTPDEVVAYQQHQGNKFKEHFDLNCYLTLLDVLDSHNIDRGRTDVTHIFKNLETKVLTMGFIDDLLYPDDQVRALGERFKYHRHFFVPDNVGHDGFLLNFSTWAPNLYHFLNLKHFKRKEGHHHHHH,soluble
11,MGSDKIHHHHHHMKTTSVPVAYMPLIDAAPLIVGQEMGFAEAEGISLELIAAPSWSSVRDMLAFGRVDLAHLLSVVPVAMALRLGGVTNPMSAVSVLSVNGNVIGVSRALEARLRAAGYPFDFADAAAAGAALAKVTQGGLTIGVPFPFSMHVELLQVWRSSTPLASVPLDIRTVPPPMMAQALASGEIDAFCVGEPWGSVSVENGAGALLLPGRAIWSFAPEKVLATRADWAETEPHLLGRVMRTVWRAGKWLADPSSRTAAAELLSRPRWLDVPAELVDRALTGELAISPDGEVRDVPGFLEFHHGAANFPWRSQGKWIATQLATRTGMDPSAAARQAADVFRSDLYRAALDGTGADMPGASEKLEGSLIHPTAVASTRGQMILDTDVFFDGRIFDPTT,not soluble
12,MAHHHHHHMCGSCWAFAAIGNIEGQWFLAGNPLTRLSEQMLVSCDNTNSGCGGGSSLKAFKWIVDRNNGAVYTEESYPYHSCIGIKLPCTTSGHTVGATITGHVELPQDEAQIAAWLAVNGPVAVVVDASSWIFYTGGVLTNCVSKKLDHAVLLVGYNDSATAPYWIIKNSWTTQWGEDGYIRIAKGSNQCLVKEEASSAVVGGPGATPEPTTTTTTSAPGPSPSCFVQMSCTDAACIVGCENVTLPTGQCLLTTSGASAIVTCGAETLTEEVFLTSTHCSGPSVRSSVPLNKCNRLLRGSVEFFRGSSSSGRLADVDRQRRYQPYHSRHRRL,soluble
13,MSLILESLVTTLDEQGRINLAPLGPIVLPPQSPGGLPQFLLRPYEGSTTCDNLLASGNAVIHVIDDALLIAKTAIGKVDASDLVVPIPGLEDTHVRLKRCHRWFAVRVTQRAGTPPRHELTARCLASGLVDPFFGFNRAKHAVIEAAVAATRLHLLPPEEIEEELERARIAIEKTGGEPEREALQLIRRHVRESSISEGHHHHHH,soluble
14,MSKPKYNRVVLKLSGEALAGEQGFGINPAVIKSVAEQVKEIAELDVEVAVVVGGGNIWRGKIGSEMGMDRAGADYMGMLATVMNSLALQDSLENIGIQTRVQTSIEMRQVAEPYIRRKAVRHLEKKRVVIFAAGTGNPYFSTDTTAALRAAEIEADVILMAKNNVDGVYNADPSIDPTATKYETLTYLDVLKEGLGVMDSTASSLCMDNDIPLIVFSVMEKGNIKRAVLGENIGTVVRGKLEHHHHHH,not soluble
15,MGSDKIHHHHHHMEHIQSSIEKILNRPDVAESVRAIHQRVLSHPGVIMFLRTHPEIDQRMIERGMLKLNEYAEQMNGNQIIEKKAVIEGYQPVLHLEKGQIMVAYEKTQALRDRENERALEKKFKSLFLPDEVRDANFSDFDLTTTDRKLALRAASQFLNTVRSKQQVKGLYLHGSFGVGKTYLLAAIGNALKKERVATILVHAPGFVSEAKRRIRSDSFDTFLESFQTVPVLLIDDIGAESISPWVRDELFGIILQYRMMHRLPTLFSSNLSYDELELHFGITNDQGDKLKAMRLMERIRTTTNPVEFLGENRRRY,not soluble
16,MKELRRFHLDHDFKIRDWVVVLNEIVVSRWDEVRREKVYRIGFQEFDCSDGWDIEREDGTIATVVFVKSSFDFFVWSK,not soluble
17,PVLTQTSEQAPSSAPRDVQARMLSSTTILVQWKEPEEPNGQIQGYRVYYTMDPTQHVNNWMKHNVADSQITTIGNLVPQKTYSVKVLAFTSIGDGPLSSDIQVITQTG,soluble
18,MSLGCDSILSIDIGTTRIKAGLVDCNTLEITGRGSVSTPVSYPRKGWSEQDPEELWQAIVRASSAALEGFEASRVSGVIFSTYLAGVVLLDRDNYELTPIITWLDERAHGLPRELFSGVLKVSGYNLLHLVDLLRLTGGAPSKTGKDPLSKMVWLRENKPDLFTKAHTIGTLKTWVLAKTAEARLVSPDDAHLTWLADTRGGRAVWSPRLARRYGIPLEKLPGIAGPTDVAGGLVSSAARDLGLPQGIPVIVGAGDIASSAVGSGALAAGEYHIYVGTSSWIGVHSTRRLLDVRHYIGSLLSAKPGEYLVIGEQEIAGGMIDWILDVTGMDYRAVEDIHSIPPGSEGLIATPWLYGERTPIDDPHAKGVLVGLTLRHTKKHLVRAAVEGVALNIAWAMEHMTRLAGKPKLVRGVGGGFRLRTLAKVIASALNATIETVSQPEMAGVRGAGALAAAALKGSSIESEAGKIPVSWRAEADSNASKAYKDLLQIYQEIYSRLKSVFRRLSEGHHHHHH,not soluble
19,MVKDEVIKQISTPLTSPAFPRGPYKFHNREYFNIVYRTDMDALRKVVPEPLEIDEPLVRFEIMAMHDTSGLGCYTESGQAIPVSFNGVKGDYLHMMYLDNEPAIAVGRELSAYPKKLGYPKLFVDSDTLVGTLDYGKLRVATATMGYKHKALDANEAKDQICRPNYMLKIIPNYDGSPRICELINAKITDVTVHEAWTGPTRLQLFDHAMAPLNDLPVKEIVSSSHILADIILPRAEVIYDYLK,soluble
20,MSLLWKKAQEETHDYIIRKADPSDAAGIISCMQSVMDERIYLVGEYYLLSERAEQERIKSLDDLTLVCVIDRKVVGVLTVQRGIYRKNRHTGMLGIAIMAGHRHKGLGTRMIKEAILWCEDQGIKKLNLEVFSTNVNAIKTYEKVGFEVEGKRRKQFLIDGQYVDDVLMTYYVDKSLKEEGHHHHHH,soluble
21,MSLSFRFAFRPYQRRLRQPLRTARDAQITVRLGIWLRLETDTEVRWGEIAPWPSFGSETLAEAIAFCEAFPPDPEWEDLATAPDSLPACQFGFGCLRESNATDFLPTSAVLLPAGAAALTAIATASPATTYKWKIGLDLESELDLLPQLDRLLPSAAKLRLDANGGLTKAQADRLLQVLTAINERRSGRIEWLEQPLDPSQVDDLLQLVQDWPLVAIALDESVSQLSSLQFWQAQGWPGLYVLKPAIAGWPQTVRQFCQVHHLPVVVSSMFESPIGWRAVAAIAAQLGRADQAQGLGTTAWFTDDWESKTAAALWQHPEGHHHHHH,not soluble
22,MGSDKIHHHHHHMPVGRGVSVGLLPKSQSPLIGVDISSTAVKLLQLSRSGNRFRVEHYAVEPLPPNAVVEKNIVEVEAVGEAIRRAINRSGSKAKNAAAAVAGSAVITKLIPMPADLDDSDLEAQVELEATNYIPYPIEEVNLDFEVLGPMPNSPDMVQVLLAASRSENVELRQSALELGGLVAKVMDVEAFAVENAFALVASELPVAADAVVALVDIGATMTTLSVLRSGRSLYSREQVFGGKQLTDEVMRRYGLTYEEAGLAKRQGGLPESYEVEVLEPFKEATVQQISRLLQFFYAGSEFNRVDCIVLAGGCAALSRLPEMVEEQLGVTTVVANPLAQMTLGPKVQAHALALDAPALMIATGLALRSFD,not soluble
